# Assay results: patent EP4554620A1 (dated 2025)
# T1: Human TIGIT residues 23-128 LEU65A mutant (human, UniProt Q495A1 23-128)
# T1 construct: not shown: C-terminal HIS tag
# T1 chain: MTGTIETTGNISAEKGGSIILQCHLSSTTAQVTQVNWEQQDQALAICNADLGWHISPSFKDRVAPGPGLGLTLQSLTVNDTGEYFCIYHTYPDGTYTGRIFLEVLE
# T2: Human TIGIT residues 23-128 ILE68A mutant (human, UniProt Q495A1 23-128)
# T2 construct: not shown: C-terminal HIS tag
# T2 chain: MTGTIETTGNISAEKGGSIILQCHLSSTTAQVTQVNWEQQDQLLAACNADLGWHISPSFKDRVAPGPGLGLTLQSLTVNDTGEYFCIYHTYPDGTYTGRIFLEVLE
# Key:
# [1] = target: T1, Human TIGIT residues 23-128 LEU65A …; assay: SPR, TIGIT alanine mutants
# [2] = target: T2, Human TIGIT residues 23-128 ILE68A …; assay: SPR, TIGIT alanine mutants
binder,measurement,setting,value
"Tiragolumab (antibody, V domains shown) VH: EVQLQQSGPGLVKPSQTLSLTCAISGDSVSSNSAAWNWIRQSPSRGLEWLGKTYYRFKWYSDYAVSVKGRITINPDTSKNQFSLQLNSVTPEDTAVFYCTRESTTYDLLAGPFDYWGQGTLVTVSS VL: not shown",fold lower binding affinity against WT TIGIT,[1],~25 fold
same,fold lower binding affinity against WT TIGIT,[2],~40 fold
